Target: human IL-12 receptor (IL-12R) (human) (UniProt P42701)
Experiment: cell-based or functional assay

Mean Fold Reduction (potency vs IL-12 WT by EC50; HEK-Blue IL-12 STAT4/SEAP reporter): 1 fold
Substance: mIL-12-Fc-wt (Fc fusion)
